{"source": "the DeepSol protein solubility set"}
{"assay": "soluble on expression in E. coli; label from the status in PepcDB or PDB records"}
{"sequence": "MRREALKTAVLKIMIEKMELKNVTHLEETMRLNQDLYIDSVMMLQLIVYIEMDVKLCVPEDEVDPKAFLTVGSLLDFMEELEPLQEVNVNN", "soluble on expression in E. coli": "not soluble"}
{"sequence": "MRRSNEPTKRKSTTGHGDYAEHKKRKSMSKEATPVLEENLTPDVMINNLHEIVTQILENQELPETAIIELEGFDATAATMEEYMQKREETRKLVTDSEFFDQKTELNLSVASLAGAQVEVDKRVTTRGMSRKLHDECGINEKDILYQGLDYHGTESRVSKELRDSRQASIIESCVDFQKQIQWKIGIMEKVKAKSGRSYPMSDGPSVRTRGGQDKQREEMKKQQKELEKSKKQRKTRAAGEQDPFKTPQKKIEFNALDERRIIENYQLEVASEIRTHRPFLSRSIAPVPFNIDILDDEEEEMEIS", "soluble on expression in E. coli": "not soluble"}
{"sequence": "MRRVGESSTGDRKALRSGLKRQGSADEDDIESIFSGIGSARINEPKAKKDDDESNEEKYFSVGKDGRRYHEGLPVYTTEELHLGDGGGDTEDCPIYCDCCL", "soluble on expression in E. coli": "not soluble"}
{"sequence": "MRSRRVDVMDVMNRLILAMDLMNRDDALRVTGEVREYIDTVKIGYPLVLSEGMDIIAEFRKRFGCRIIADFKVADIPETNEKICRATFKAGADAIIVHGFRGADSVRACLNVAEEMGREVFLLTEMSHPGAEMFIQGAADEIARMGVDLGVKNYVGPSTRPERLSRLREIIGQDSFLISPGVGAQGGDPGETLRFADAIIVGRSIYLADNPAAAAAGIIESIKDLLNP", "soluble on expression in E. coli": "not soluble"}
{"sequence": "MRSSNNRHEGEEAMNRTQQWMEDLQKNISDLIARSPAADVERNVRAMMTQTFARLDLITREEFEVQVDLLARARTRVDQLSAQVQQLEARLAALEAGKPQA", "soluble on expression in E. coli": "not soluble"}
{"sequence": "MRTELLSKLYDDFGIDQLPHTQHGVTSDRLGKLYEKYILDIFKDIESLKKYNTNAFPQEKDISSKLLKALNLDLDNIIDVSSSDTDLGRTIAGGSPKTDATIRFTFHNQSSRLVPLNIKHSSKKKVSIAEYDVETICTGVGISDGELKELIRKHQNDQSAKLFTPVQKQRLTELLEPYRERFIRWCVTLRAEKSEGNILHPDLLIRFQVIDREYVDVTIKNIDDYVSDRIAEGSKARKPGFGTGLNWTYASGSKAKKMQFKG", "soluble on expression in E. coli": "soluble"}
{"sequence": "MRTLKIEPLTKEAFAPFGDVIETAGSDYFMINNGSTRRYHKLATVETAQPEDNAIISIFSAEKLEMPLRIRMLERHPLGSQAFIPLLGNPFLVVVAPLGDVPVPGLVRAFLTNGRQGVNYHRGVWHHPVLTIEKRDDFLVVDRSGSGNNCDEHFFTEDEQLLLDPQSNQLEHHHHHH", "soluble on expression in E. coli": "not soluble"}
{"sequence": "MRTSNYLLSTLKETPNDAEVVSHQLMLRAGMIRKLASGLYTWLPTGLRVLRKVENIVRQEIDNAGAVETLMPVVQPFELWEETGRSEKMGPELLRFTDRHVRPFVLSPTAEEVITSLVRNEVSSYKQLPLNLYQIQTKFRDERRPRFGVMRAREFCMMDAYSFDIDKAGLEKSYQAMHDAYCKAFDRMGLEYRPVLADSGAIGGSGSQEFHVLADSGEDLIAFSTESDYAANIEKAEALAPAVERAEPTQEMTLVDTPNAKTIAELVEQHGLPIEKTVKTLFVKASDEIDAPIIALIVRGDHELNEVKAENLPQVASPLEMASEEEIRELIGAGPGSLGPVGLELPFIVDRSVAVMSDFGAGANIDGKHYFGINWGRDVELGQVEDLRNVVEGDPSPCGKGTLMLK", "soluble on expression in E. coli": "not soluble"}
{"sequence": "MRVDELRVDERIKSTLKERGIESFYPPQAEALKSGILEGKNALISIPTASGKTLIAEIAMVHRILTQGGKAVYIVPLKALAEEKFQEFQDWEKIGLRVAMATGDYDSKDEWLGKYDIIIATAEKFDSLLRHGSSWIKDVKILVADEIHLIGSRDRGATLEVILAHMLGKAQIIGLSATIGNPEELAEWLNAELIVSDWRPVKLRRGVFYQGFVTWEDGSIDRFSSWEELVYDAIRKKKGALIFVNMRRKAERVALELSKKVKSLLTKPEIRALNELADSLEENPTNEKLAKAIRGGVAFHHAGLGRDERVLVEENFRKGIIKAVVATPTLSAGINTPAFRVIIRDIWRYSDFGMERIPIIEVHQMLGRAGRPKYDEVGEGIIVSTSDDPREVMNHYIFGKPEKLFSQLSNESNLRSQVLALIATFGYSTVEEILKFISNTFYAYQRKDTYSLEEKIRNILYFLLENEFIEISLEDKIRPLSLGIRTAKLYIDPYTAKMFKDKMEEVVKDPNPIGIFHLISLTPDITPFNYSKREFERLEEEYYEFKDRLYFDDPYISGYDPYLERKFFRAFKTALVLLAWINEVPEGEIVEKYSVEPGDIYRIVETAEWLVYSLKEIAKVLGAYEIVDYLETLRVRVKYGIREELIPLMQLPLVGRRRARALYNSGFRSIEDISQARPEELLKIEGIGVKTVEAIFKFLGKNVKISEKPRKSTLDYFLKS", "soluble on expression in E. coli": "soluble"}
{"sequence": "MRVEIVPIRPEFDAEICQIIQSVGAEFGAIGEGFGPSDAEVLAMSQYYREQDRSAYFVALLEGKVVGGGGIAPFAGHTDLCELKKLFLLPTSRGHGVGRALSEHCLNFAKQQGYTKCYLDTLSSMTQAIKLYQQLGFEHLTQPMAGTEHNGCDVWMLKSLN", "soluble on expression in E. coli": "not soluble"}
{"sequence": "MRVEPLPGVPAATVDTDGERLLAVADYHAGIEAGLRYEGVELQSAAEARRERLLTCLRRARADRLVVIGDLGHAIGDPFADERAELETLFDALDVPVTLVKGNHD", "soluble on expression in E. coli": "not soluble"}
{"sequence": "MRVLYERCCGLDVHKKSITACVLTPEGKEIRTFGTMTDDLEELVEWLKQKQVTHVAMESTGVYWKPIYNLLEAEPIDVLVVNAQHIKAVPGRKTDVKDAEWIADLLRHGLLRGSYIPDRAQRELRELVRYRRSLIEERARELNRIQKVLEGANIKLASVVSDINGVSAQQILRALIEGTDDPAVLAQLAKGRLKQKIGELRRALKGIMGPHQRMMLAEQCRHIEYLDEAIARLSREIEERTRPFHEVLELMETIPGVGRQSAEQIIAEIGTDMSRFPTAAHVASWAGMAPGNHESAGKRLSGRTRKGNKKLRACLVECARAAARTKNTYLSAKYHRIAKRRGANRASVAVGRTILEIIYSVLTRKAPYRELGADYWDQQREAAIVRQTVKRLEGLGYEVKLEKTSA", "soluble on expression in E. coli": "not soluble"}
{"sequence": "MRVVAFVPGSISDQILFFPTLDDLKRYYPDAQIDVIVESQSKAAYRLSKSVHEVLTFDYSDHNSLADWGNLVGTIRDREYDVAMTTGESWFIGLFLWLTGIPTRIGYKGKGAGFLTNTIRRNTSQYVAAMYHDLLKPVGIKTPCPELTANVPKPDIQWAQQEQKRLGIHETGYILIYGGSSHSSQIDGADTSYPIASWQQIIQDCQHKQPELPIVLIKEADDENFVRVLLESCSNLKITSPDDIGKLTAIISGASLMLSIENGPLQLAVAVQTYTIALLSSTDADKLLPKSDKFLAIKSHSGKTVDIPPPTVLEKIWGG", "soluble on expression in E. coli": "not soluble"}
{"sequence": "MRVVVLMGGRSSEREISLKTGKAVAKALRELGHEVYELDLDKELPCKLLEIKPDKVFIALHGRYGEDGTVQGLLEILDIPYTGSDTIASAVSIDKDFTKRIVKSLGINTPDWETFISEGDVLNTEWNKFPAVVKPVREGSSVGLKIVESLEELKEYALDLLKKTERVMVEEFVEGRDMTVGILKGEALPVVEIIPKKGVYDYECKYTKGMSEYRILKDEKLSKKLQEISLKISKFLSLKDFARIDFRVTKEGKIFFLEVNTIPGMTELSLLPMAAKEKGMDFKKLISIIIT", "soluble on expression in E. coli": "soluble"}
{"sequence": "MSAAADRLNLTSGHLNAGRKRSSSSVSLKAAEKPFKVTVIGSGNWGTTIAKVVAENCKGYPEVFAPIVQMWVFEEEINGEKLTEIINTRHQNVKYLPGITLPDNLVANPDLIDSVKDVDIIVFNIPHQFLPRICSQLKGHVDSHVRAISCLKGFEVGAKGVQLLSSYITEELGIQCGALSGANIATEVAQEHWSETTVAYHIPKDFRGEGKDVDHKVLKALFHRPYFHVSVIEDVAGISICGALKNVVALGCGFVEGLGWGNNASAAIQRVGLGEIIRFGQMFFPESREETYYQESAGVADLITTCAGGRNVKVARLMATSGKDAWECEKELLNGQSAQGLITCKEVHEWLETCGSVEDFPLFEAVYQIVYNNYPMKNLPDMIEELDLHED", "soluble on expression in E. coli": "soluble"}
{"sequence": "MSAAPLVGYSSSGSEDESEDGMRTRPGDGSHRRGQSPLPRQRFPVPDSVLNMFPGTEEGPEDDSTKHGGRVRTFPHERGNWATHVYVPYEAKEEFLDLLDVLLPHAQTYVPRLVRMKVFHLSLSQSVVLRHHWILPFVQALKARMTSFHRFFFTANQVKIYTNQEKTRTFIGLEVTSGHAQFLDLVSEVDRVMEEFNLTTFYQDPSFHLSLAWCVGDARLQLEGQCLQELQAIVDGFEDAEVLLRVHTEQVRCKSGNKFFSMPLK", "soluble on expression in E. coli": "soluble"}
{"sequence": "MSAFSAINEEREIERDEFTPGIEPQATWCPGCGDFGVLKALKQAMPEVGKNPDEVALFTGIGCSGKLNSYFNSYGFHTIHGRSLPVARAAKLANPNLEVIAAGGDGDGYGIGGNHTIHTARENHDMTYIVFNNEIFGLTKGQTSPTSPKGHKSKTQPHGSAKSPIRPLSQQLNAGATYIARTAAVNPNQAKEIIAEAIEHDGFAHIDFLTQCPTWNKDAKHYVPYTDVQQSDEFDFDVSDRAEAAEMMRKTEERLYEGEVLTGRMYIEDERPSYGEEKRQIGEMPEEPLAERYFDEDAEWERTYDNLLEHHK", "soluble on expression in E. coli": "not soluble"}
{"sequence": "MSAITAPLPTLDDLATLTLSIKAWGRELGFQEVGISGLDLAEHEQHLQRWLDAGYHGEMDYMAAHGSKRSHPDELVPGTLRVVSLRMDYLPGDTEMAQRLTEPEKAYVSRYALGRDYHKLIRKRLQQLAERIQQAIGPFGFRAFVDSAPVLEKAIAEQAGLGWIGKNTLVLNRKAGSFFFLGELFVDIPLPVDAPHATEHCGRCTACLDICPTAAFVGPYVLDARRCISYLTIELKTAIPEELRPLIGNRVFGCDDCQIVCPWNRFARPTDQSDFQPRHNLDNAGLAELFLWDEEKFLGSTEGSPLRRAGYERWLRNLAVGLGNAPSTIPVIEALQARRDYPSELVREHVEWALQRHGVAPL", "soluble on expression in E. coli": "not soluble"}
{"sequence": "MSAKEVDFERESHLHAVMCFLTGQSGEKIVSIYPHRKPATKAPSKDPQPSSSNPGQCVKPVLTSVKDPSYGFGRVDTEFDMSLGMLAYVFKTQEIACNDGFDMKINNQRFVAYPKTWKARGESTNYQISIVFALKNGCEQHTASAYQTLSNKIAVSLVMLQNYFGFLEREDKWADNAEEPNKDHPLEEFAKTSFIVQPLAEMFEEVRNRGNIHKYLINFVELGFCDEAHALTKLNVVPKGRQEIDEIVRKMKPYHGILLLEDVWPTPDANPIVAKLLSHCSPDRSILDMSTASGIPIFEVFMIIRHLLQWTRAILIYPLCNTNIYTSATSPQPLDKMAEKFTAQFGNTIHLAAGLAHFNPPKTLDTFIRKNLPLHEQGVRAKLVVALLRHQMLMQLHQFYYILKPYSIAILPEPKEPCPAEFTKIIEESTLPNDVKGVVADICAEMLETTSYASVKRTLSLFVKVAPMMDGNHHLEEIKYKNNLDRTEIEGVFVSFKLVIATFRRPDFVAE", "soluble on expression in E. coli": "not soluble"}
{"sequence": "MSALLPIINRLILQSPDSRSELAAFAGKTLTLNIAGLKLAGRITEDGLLSAGNGFADTEITFRNSAVQKILQGGEPGAGDIGLEGDLILGIAVLSLLGSLRSRASDELARIFGTQADIGSRAADIGHGIKQIGRNIAEQIGGFSRESESANIGNEALADCLDEISRLRDGVERLNERLDRLERDIWID", "soluble on expression in E. coli": "not soluble"}
{"sequence": "MSALQSLRPALRTAYGLAVRSDIDLPELEPLPGDGAADLTVRRGALPELPGEGGFRTRFAPERAELWWQTVGTFRVEPGLVTASPHAGVSEDLVAYPLLGSVLALALEQLGLFTIHASAVSVGGHGVVMMGDKGAGKSTTATAMIRAGHPLIADDIVAVDEGFRLRPGFPQVKLSPAAAAAFDAPDAVHRPTVPEVPEKCRVLLPERFARGATPLKRIYRLERAPAGTEPAVISVSPIEALPLALRFAYVTRFGAEALNGAAGARHLRQAAAIAASGVLHRVIVPHALDRLPEVVALIERDAGAAALEHHHHHH", "soluble on expression in E. coli": "not soluble"}
